From IntAct's records for PubMed 31515488

B1: Golgin-45 (Homo sapiens), Q9H2G9 (parent)
chain: MTTKNLETKVTVTSSPIRGAGDGMETEEPPKSVEVTSGVQSRKHHSLQSPWKKAVPSESPGVLQLGKMLTEKAMEVKAVRILVPKAAITHDIPNKNTKVKSLGHHKGEFLGQSEGVIEPNKELSEVKNVLEKLKNSERRLLQDKEGLSNQLRVQTEVNRELKKLLVASVGDDLQYHFERLAREKNQLILENEALGRNTAQLSEQLERMSIQCDVWRSKFLASRVMADELTNSRAALQRQNRDAHGAIQDLLSEREQFRQEMIATQKLLEELLVSLQWGREQTYSPSVQPHSTAELALTNHKLAKAVNSHLLGNVGINNQKKIPSTVEFCSTPAEKMAETVLRILDPVTCKESSPDNPFFESSPTTLLATKKNIGRFHPYTRYENITFNCCNHCRGELIAL
partner: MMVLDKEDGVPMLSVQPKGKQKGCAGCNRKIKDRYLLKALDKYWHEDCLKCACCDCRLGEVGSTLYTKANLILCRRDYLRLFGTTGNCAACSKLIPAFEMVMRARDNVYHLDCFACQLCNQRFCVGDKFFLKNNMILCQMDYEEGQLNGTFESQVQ
B2: PDZ and LIM domain protein 5 (Homo sapiens), Q96HC4 (parent)
chain: MSNYSVSLVGPAPWGFRLQGGKDFNMPLTISSLKDGGKAAQANVRIGDVVLSIDGINAQGMTHLEAQNKIKGCTGSLNMTLQRASAAPKPEPVPVQKGEPKEVVKPVPITSPAVSKVTSTNNMAYNKAPRPFGSVSSPKVTSIPSPSSAFTPAHATTSSHASPSPVAAVTPPLFAASGLHANANLSADQSPSALSAGKTAVNVPRQPTVTSVCSETSQELAEGQRRGSQGDSKQQNGPPRKHIVERYTEFYHVPTHSDASKKRLIEDTEDWRPRTGTTQSRSFRILAQITGTEHLKESEADNTKKANNSQEPSPQLASSVASTRSMPESLDSPTSGRPGVTSLTAAAAFKPVGSTGVIKSPSWQRPNQGVPSTGRISNSATYSGSVAPANSALGQTQPSDQDTLVQRAEHIPAGKRTPMCAHCNQVIRGPFLVALGKSWHPEEFNCAHCKNTMAYIGFVEEKGALYCELCYEKFFAPECGRCQRKILGEVISALKQTWHVSCFVCVACGKPIRNNVFHLEDGEPYCETDYYALFGTICHGCEFPIEAGDMFLEALGYTWHDTCFVCSVCCESLEGQTFFSKKDKPLCKKHAHSVNF
B3: Conserved oligomeric Golgi complex subunit 2 (Homo sapiens), Q14746 (parent)
chain: MEKSRMNLPKGPDTLCFDKDEFMKEDFDVDHFVSDCRKRVQLEELRDDLELYYKLLKTAMVELINKDYADFVNLSTNLVGMDKALNQLSVPLGQLREEVLSLRSSVSEGIRAVDERMSKQEDIRKKKMCVLRLIQVIRSVEKIEKILNSQSSKETSALEASSPLLTGQILERIATEFNQLQFHAVQSKGMPLLDKVRPRIAGITAMLQQSLEGLLLEGLQTSDVDIIRHCLRTYATIDKTRDAEALVGQVLVKPYIDEVIIEQFVESHPNGLQVMYNKLLEFVPHHCRLLREVTGGAISSEKGNTVPGYDFLVNSVWPQIVQGLEEKLPSLFNPGNPDAFHEKYTISMDFVRRLERQCGSQASVKRLRAHPAYHSFNKKWNLPVYFQIRFREIAGSLEAALTDVLEDAPAESPYCLLASHRTWSSLRRCWSDEMFLPLLVHRLWRLTLQILARYSVFVNELSLRPISNESPKEIKKPLVTGSKEPSITQGNTEDQGSGPSETKPVVSISRTQLVYVVADLDKLQEQLPELLEIIKPKLEMIGFKNFSSISAALEDSQSSFSACVPSLSSKIIQDLSDSCFGFLKSALEVPRLYRRTNKEVPTTASSYVDSALKPLFQLQSGHKDKLKQAIIQQWLEGTLSESTHKYYETVSDVLNSVKKMEESLKRLKQARKTTPANPVGPSGGMSDDDKIRLQLALDVEYLGEQIQKLGLQASDIKSFSALAELVAAAKDQATAEQP
B4: Notch homolog 2 N-terminal-like protein A (Homo sapiens), Q7Z3S9 (parent)
chain: MCVTYHNGTGYCKCPEGFLGEYCQHRDPCEKNRCQNGGTCVAQAMLGKATCRCASGFTGEDCQYSTSHPCFVSRPCLNGGTCHMLSRDTYECTCQVGFTGKECQWTDACLSHPCANGSTCTTVANQFSCKCLTGFTGQKCETDVNECDIPGHCQHGGTCLNLPGSYQCQCLQGFTGQYCDSLYVPCAPSPCVNGGTCRQTGDFTFECNCLPETVRRGTELWERDREVWNGKEHDEN
partner: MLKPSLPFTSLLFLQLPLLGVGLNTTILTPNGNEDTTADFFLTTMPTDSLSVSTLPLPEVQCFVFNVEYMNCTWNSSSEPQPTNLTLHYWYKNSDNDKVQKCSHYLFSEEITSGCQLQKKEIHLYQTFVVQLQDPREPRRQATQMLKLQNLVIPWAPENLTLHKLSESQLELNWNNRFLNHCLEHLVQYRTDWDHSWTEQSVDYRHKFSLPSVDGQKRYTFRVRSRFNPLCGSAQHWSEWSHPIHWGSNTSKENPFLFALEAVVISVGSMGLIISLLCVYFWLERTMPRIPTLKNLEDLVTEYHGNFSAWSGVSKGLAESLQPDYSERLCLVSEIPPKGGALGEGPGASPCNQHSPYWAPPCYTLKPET
B5: Zinc finger protein RFP (Homo sapiens), P14373 (parent)
chain: MASGSVAECLQQETTCPVCLQYFAEPMMLDCGHNICCACLARCWGTAETNVSCPQCRETFPQRHMRPNRHLANVTQLVKQLRTERPSGPGGEMGVCEKHREPLKLYCEEDQMPICVVCDRSREHRGHSVLPLEEAVEGFKEQIQNQLDHLKRVKDLKKRRRAQGEQARAELLSLTQMEREKIVWEFEQLYHSLKEHEYRLLARLEELDLAIYNSINGAITQFSCNISHLSSLIAQLEEKQQQPTRELLQDIGDTLSRAERIRIPEPWITPPDLQEKIHIFAQKCLFLTESLKQFTEKMQSDMEKIQELREAQLYSVDVTLDPDTAYPSLILSDNLRQVRYSYLQQDLPDNPERFNLFPCVLGSPCFIAGRHYWEVEVGDKAKWTIGVCEDSVCRKGGVTSAPQNGFWAVSLWYGKEYWALTSPMTALPLRTPLQRVGIFLDYDAGEVSFYNVTERCHTFTFSHATFCGPVRPYFSLSYSGGKSAAPLIICPMSGIDGFSGHVGNHGHSMETSP
partner: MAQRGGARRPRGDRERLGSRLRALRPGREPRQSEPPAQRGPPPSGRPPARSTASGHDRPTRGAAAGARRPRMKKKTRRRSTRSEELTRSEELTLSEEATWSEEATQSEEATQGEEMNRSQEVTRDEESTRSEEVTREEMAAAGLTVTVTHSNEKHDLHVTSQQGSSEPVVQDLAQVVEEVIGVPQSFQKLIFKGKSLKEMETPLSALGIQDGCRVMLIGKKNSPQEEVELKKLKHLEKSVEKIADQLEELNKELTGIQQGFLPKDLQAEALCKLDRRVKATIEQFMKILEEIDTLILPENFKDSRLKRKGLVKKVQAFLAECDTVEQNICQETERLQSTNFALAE
B6: Transcription factor 12 (Homo sapiens), Q99081-3 (parent)
chain: MNPQQQRMAAIGTDKELSDLLDFSAMFSPPVNSGKTRPTTLGSSQFSGSGIDERGGTTSWGTSGQPSPSYDSSRGFTDSPHYSDHLNDSRLGAHEGLSPTPFMNSNLMGKTSERGSFSLYSRDTGLPGCQSSLLRQDLGLGSPAQLSSSGKPGTAYYSFSATSSRRRPLHDSAALDPLQAKKVRKVPPGLPSSVYAPSPNSDDFNRESPSYPSPKPPTSMFASTFFMQDGTHNSSDLWSSSNGMSQPGFGGILGTSTSHMSQSSSYGNLHSHDRLSYPPHSVSPTDINTSLPPMSSFHRGSTSSSPYVAASHTPPINGSDSILGTRGNAAGSSQTGDALGKALASIYSPDHTSSSFPSNPSTPVGSPSPLTGTSQWPRPGGQAPSSPSYENSLHSLKNRVEQQLHEHLQDAMSFLKDVCEQSRMEDRLDRLDDAIHVLRNHAVGPSTSLPAGHSDIHSLLGPSHNAPIGSLNSNYGGSSLVASSRSASMVGTHREDSVSLNGNHSVLSSTVTTSSTDLNHKTQENYRGGLQSQSGTVVTTEIKTENKEKDENLHEPPSSDDMKSDDESSQKDIKVSSRGRTSSTNEDEDLNPEQKIEREKERRMANNARERLRVRDINEAFKELGRMCQLHLKSEKPQTKLLILHQAVAVILSLEQQVRERNLNPKAACLKRREEEKVSAVSAEPPTTLPGTHPGLSETTNPMGHM
partner: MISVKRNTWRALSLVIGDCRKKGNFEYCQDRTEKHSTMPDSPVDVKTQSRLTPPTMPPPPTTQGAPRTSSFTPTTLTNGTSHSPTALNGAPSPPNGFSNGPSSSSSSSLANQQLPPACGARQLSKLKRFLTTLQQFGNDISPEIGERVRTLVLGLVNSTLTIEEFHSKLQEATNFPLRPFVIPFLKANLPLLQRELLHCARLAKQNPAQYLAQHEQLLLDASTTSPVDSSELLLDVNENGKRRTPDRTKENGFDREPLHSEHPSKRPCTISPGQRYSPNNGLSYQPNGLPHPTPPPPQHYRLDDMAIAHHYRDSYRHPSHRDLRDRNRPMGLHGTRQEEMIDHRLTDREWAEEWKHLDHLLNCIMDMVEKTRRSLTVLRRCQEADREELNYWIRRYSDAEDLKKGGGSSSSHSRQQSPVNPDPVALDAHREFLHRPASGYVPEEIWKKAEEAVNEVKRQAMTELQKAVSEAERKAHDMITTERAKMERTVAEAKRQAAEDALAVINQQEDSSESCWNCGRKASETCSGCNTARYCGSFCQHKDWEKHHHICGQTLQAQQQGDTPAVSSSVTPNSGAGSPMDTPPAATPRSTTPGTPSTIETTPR

Variants of: B1
Details: with rbtn1_human LMO1, P25800

| effect of a mutation on the interaction | Variant |
| --- | --- |
| with no effect | Q40R |

Variants of: B2
Details: with cc136_human CCDC136, Q96JN2
Chain of cc136_human CCDC136, Q96JN2 (Q96JN2 whole entry): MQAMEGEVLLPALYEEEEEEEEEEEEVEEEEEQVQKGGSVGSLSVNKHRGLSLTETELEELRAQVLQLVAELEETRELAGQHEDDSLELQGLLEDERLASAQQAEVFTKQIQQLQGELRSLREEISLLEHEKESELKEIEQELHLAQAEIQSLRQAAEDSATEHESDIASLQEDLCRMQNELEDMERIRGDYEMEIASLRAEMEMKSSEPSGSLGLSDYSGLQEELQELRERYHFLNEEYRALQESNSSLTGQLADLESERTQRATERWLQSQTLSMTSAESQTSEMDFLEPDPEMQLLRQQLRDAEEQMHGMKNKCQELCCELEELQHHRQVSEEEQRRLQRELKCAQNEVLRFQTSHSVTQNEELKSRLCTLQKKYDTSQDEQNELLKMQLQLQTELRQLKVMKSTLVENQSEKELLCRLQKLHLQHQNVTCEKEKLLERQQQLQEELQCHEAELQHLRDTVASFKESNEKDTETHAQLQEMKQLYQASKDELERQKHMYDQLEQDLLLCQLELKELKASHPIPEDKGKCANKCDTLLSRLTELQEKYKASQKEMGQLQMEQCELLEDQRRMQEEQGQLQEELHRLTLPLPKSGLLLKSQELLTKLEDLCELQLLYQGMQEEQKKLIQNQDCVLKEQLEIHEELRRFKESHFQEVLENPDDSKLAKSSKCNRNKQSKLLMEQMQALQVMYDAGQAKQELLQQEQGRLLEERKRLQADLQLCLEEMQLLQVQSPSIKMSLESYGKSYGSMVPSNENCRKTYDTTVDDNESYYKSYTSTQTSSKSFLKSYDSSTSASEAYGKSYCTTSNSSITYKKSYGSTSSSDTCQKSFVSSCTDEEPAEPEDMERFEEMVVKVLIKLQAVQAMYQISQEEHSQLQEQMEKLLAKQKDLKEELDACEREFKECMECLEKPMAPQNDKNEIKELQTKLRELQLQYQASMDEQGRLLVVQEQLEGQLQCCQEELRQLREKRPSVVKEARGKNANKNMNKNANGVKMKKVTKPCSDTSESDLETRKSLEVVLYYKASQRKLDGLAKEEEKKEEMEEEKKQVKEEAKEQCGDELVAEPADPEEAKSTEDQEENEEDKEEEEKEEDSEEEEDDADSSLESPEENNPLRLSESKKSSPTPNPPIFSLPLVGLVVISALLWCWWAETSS

| effect of a mutation on the interaction | Variant |
| --- | --- |
| with no effect | P388S |
| with no effect | S136F |

Variants of: B2
Details: with coil_human COIL

| effect of a mutation on the interaction | Variant |
| --- | --- |
| with no effect | P388S |

Variants of: B3
Details: with mtus2_human MTUS2, Q5JR59
Chain of mtus2_human MTUS2, Q5JR59 (Q5JR59 whole entry): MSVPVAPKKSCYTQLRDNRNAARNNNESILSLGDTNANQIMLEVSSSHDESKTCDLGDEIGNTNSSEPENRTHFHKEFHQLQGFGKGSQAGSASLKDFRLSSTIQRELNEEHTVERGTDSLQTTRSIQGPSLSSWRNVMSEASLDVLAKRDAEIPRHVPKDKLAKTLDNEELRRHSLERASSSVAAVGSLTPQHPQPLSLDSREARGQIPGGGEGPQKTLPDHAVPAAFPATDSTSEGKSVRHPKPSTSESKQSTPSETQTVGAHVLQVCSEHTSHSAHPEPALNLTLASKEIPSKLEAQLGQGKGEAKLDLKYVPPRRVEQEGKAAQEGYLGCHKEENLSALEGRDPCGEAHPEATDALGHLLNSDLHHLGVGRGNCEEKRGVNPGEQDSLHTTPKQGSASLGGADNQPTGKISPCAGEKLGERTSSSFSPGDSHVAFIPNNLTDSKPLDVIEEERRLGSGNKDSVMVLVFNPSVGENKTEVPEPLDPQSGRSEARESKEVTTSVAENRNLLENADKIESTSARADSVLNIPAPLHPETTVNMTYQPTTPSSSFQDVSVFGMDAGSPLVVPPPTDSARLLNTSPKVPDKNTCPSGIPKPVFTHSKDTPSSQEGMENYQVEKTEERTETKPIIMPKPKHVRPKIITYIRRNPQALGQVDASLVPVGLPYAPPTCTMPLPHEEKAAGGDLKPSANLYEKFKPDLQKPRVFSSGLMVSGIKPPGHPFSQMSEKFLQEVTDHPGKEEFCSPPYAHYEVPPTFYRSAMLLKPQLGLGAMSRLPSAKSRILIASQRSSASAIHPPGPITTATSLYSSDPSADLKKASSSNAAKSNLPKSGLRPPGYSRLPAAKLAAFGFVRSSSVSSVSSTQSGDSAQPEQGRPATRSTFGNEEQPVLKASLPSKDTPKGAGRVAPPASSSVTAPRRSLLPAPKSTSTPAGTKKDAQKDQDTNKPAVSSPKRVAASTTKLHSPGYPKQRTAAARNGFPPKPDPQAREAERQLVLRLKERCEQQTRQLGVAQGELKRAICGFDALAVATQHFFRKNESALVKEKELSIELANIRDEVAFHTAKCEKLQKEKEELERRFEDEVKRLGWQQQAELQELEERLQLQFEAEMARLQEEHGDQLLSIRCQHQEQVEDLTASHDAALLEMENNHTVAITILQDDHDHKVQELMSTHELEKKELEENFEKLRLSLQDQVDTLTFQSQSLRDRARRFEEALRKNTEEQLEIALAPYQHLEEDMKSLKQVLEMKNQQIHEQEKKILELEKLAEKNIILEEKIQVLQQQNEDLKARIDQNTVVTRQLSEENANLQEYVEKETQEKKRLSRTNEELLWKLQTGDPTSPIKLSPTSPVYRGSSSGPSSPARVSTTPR

| effect of a mutation on the interaction | Variant |
| --- | --- |
| with no effect | V589I |

Variants of: B4
Details: with il2rg_human IL2RG

| effect of a mutation on the interaction | Variant |
| --- | --- |
| with no effect | R74Q |
| with no effect | A115T |

Variants of: B5
Details: with bag1_human BAG1, Q99933

| effect of a mutation on the interaction | Variant |
| --- | --- |
| with no effect | N355S |

Variants of: B6
Details: with mtg8_human RUNX1T1, Q06455

| Variant | effect of a mutation on the interaction |
| --- | --- |
| Y120C | with no effect |
| R74G | with no effect |

The remaining lines, values ahead:

| effect of a mutation on the interaction | Variant |
| --- | --- |
| with no effect | N606H |
| with no effect | A482V |
